Laboratory results reported in article PMC12207459, “A self-assembling surface layer flattens the cytokinetic furrow to aid cell division in an archaeon” (Proceedings of the National Academy of Sciences of the …, 2025).

Molecular target: the molecule itself
Test: cryo-EM imaging of cells; unlabeled purified S-layer proteins added to live Vps4 E209Q ΔslaA cells, 75 °C, 1 h; lattice seen on the cell surface by cryo-EM

B1: purified SlaA from wild-type S. acidocaldarius, unlabeled (natural protein, Sulfolobus acidocaldarius, UniProt Q4J6E5 25-1424, looked up)
chain: ITTTALTPPVSAGGIQAYLLTGSGAPASGLVLFVVNVSNIQVSSSNVTNVISTVVSNIQINAKTENAQTGATTGSVTVRFPTSGYNAYYDSVDKVVFVVVSFLYPYTTTSVNIPLSYLSKYLPGLLTAQPYDETGAQVTSVSSTPFGSLIDTSTGQQILGTNPVLTSYNSYTTQANTNMQEGVVSGTLTSFTLGGQSFSGSTVPVILYAPFIFSNSPYQAGLYNPMQVNGNLGSLSSEAYYHPVIWGRALINTTLIDTYASGSVPFTFQLNYSVPGPLTINMAQLAWIASINNLPTSFTYLSYKFSNGYESFLGIISNSTQLTAGALTINPSGNFTINGKKFYVYLLVVGSTNSTTPVEYVTKLVVEYPSSTNFLPQGVTVTTSSNKYTLPVYEIGGPAGTTITLTGNWYSTPYTVQITVGSTPTLTNYVSQILLKAVAYEGINVSTTQSPYYSTAILSTPPSEISITGSSTITAQGKLTATSASATVNLLTNATLTYENIPLTQYSFNGIIVTPGYAAINGTTAMAYVIGALYNKTSDYVLSFAGSQEPMQVMNNNLTEVTTLAPFGLTLLAPSVPATETGTSPLQLEFFTVPSTSYIALVDFGLWGNLTSVTVSAYDTVNNKLSVNLGYFYGIVIPPSISTAPYNYQNFICPNNYVTVTIYDPDAVLDPYPSGSFTTSSLPLKYGNMNITGAVIFPGSSVYNPSGVFGYSNFNKGAAVTTFTYTAQSGPFSPVALTGNTNYLSQYADNNPTDNYYFIQTVNGMPVLMGGLSIVASPVSASLPSSTSSPGFMYLLPSAAQVPSPLPGMATPNYNLNIYITYKIDGATVGNNMINGLYVASQNTLIYVVPNGSFVGSNIKLTYTTTDYAVLHYFYSTGQYKVFKTVSVPNVTANLYFPSSTTPLYQLSVPLYLSEPYYGSPLPTYIGLGTNGTSLWNSPNYVLFGVSAVQQYLGFIKSISVTLSNGTTVVIPLTTSNMQTLFPQLVGQELQACNGTFQFGISITGLEKLLNLNVQQLNNSILSVTYHDYVTGETLTATTKLVALSTLSLVAKGAGVVEFLLTAYPYTGNITFAPPWFIAENVVKQPFMTYSDLQFAKTNPSAILSLSTVNITVVGLGGKASVYYNSTSGQTVITNIYGQTVATLSGNVLPTLTELAAGNGTFTGSLQFTIVPNNTVVQIPSSLTKTSFAVYTNGSLAIVLNGKAYSLGPAGLFLLPFVTYTGSAIGANATAIITVSDGVGTSTTQVPITAENFTPIRLAPFQVPAQVPLPNAPKLKYEYNGSIVITPQQQVLKIYVTSILPYPQEFQIQAFVYEASQFNVHTGSPTAAPVYFSYSAVRAYPALGIGTSVPNLLVYVQLQGISNLPAGKYVIVLSAVPFAGGPVLSEYPAQLIFTNVTLTQ
modifications: highly glycosylated
notes: S-layer protein SlaA of Sulfolobus acidocaldarius, locus saci2355, extracted from the S-layer of wild-type cells; Same preparation as m1 without the dye; it may also contain SlaB; also called unlabeled exogenous S-layer proteins; soluble S-layer proteins
B1: binds.
